According to publication PMC10656236 (The Journal of Biological Chemistry, 2023):

Biological target: cohesin-NIPBL^c subcomplex containing SMC1, SMC3, RAD21 and NIPBL^c (no SA1) (human, UniProt Q14683;Q9UQE7;O60216;Q6KC79)
Assay: reconstitution by mixing, AFM imaging in air

Sequence of cohesin-NIPBL^c subcomplex containing SMC1, SMC3, RAD21 and NIPBL^c (no SA1) (Q14683 whole entry, chain 1 of 4): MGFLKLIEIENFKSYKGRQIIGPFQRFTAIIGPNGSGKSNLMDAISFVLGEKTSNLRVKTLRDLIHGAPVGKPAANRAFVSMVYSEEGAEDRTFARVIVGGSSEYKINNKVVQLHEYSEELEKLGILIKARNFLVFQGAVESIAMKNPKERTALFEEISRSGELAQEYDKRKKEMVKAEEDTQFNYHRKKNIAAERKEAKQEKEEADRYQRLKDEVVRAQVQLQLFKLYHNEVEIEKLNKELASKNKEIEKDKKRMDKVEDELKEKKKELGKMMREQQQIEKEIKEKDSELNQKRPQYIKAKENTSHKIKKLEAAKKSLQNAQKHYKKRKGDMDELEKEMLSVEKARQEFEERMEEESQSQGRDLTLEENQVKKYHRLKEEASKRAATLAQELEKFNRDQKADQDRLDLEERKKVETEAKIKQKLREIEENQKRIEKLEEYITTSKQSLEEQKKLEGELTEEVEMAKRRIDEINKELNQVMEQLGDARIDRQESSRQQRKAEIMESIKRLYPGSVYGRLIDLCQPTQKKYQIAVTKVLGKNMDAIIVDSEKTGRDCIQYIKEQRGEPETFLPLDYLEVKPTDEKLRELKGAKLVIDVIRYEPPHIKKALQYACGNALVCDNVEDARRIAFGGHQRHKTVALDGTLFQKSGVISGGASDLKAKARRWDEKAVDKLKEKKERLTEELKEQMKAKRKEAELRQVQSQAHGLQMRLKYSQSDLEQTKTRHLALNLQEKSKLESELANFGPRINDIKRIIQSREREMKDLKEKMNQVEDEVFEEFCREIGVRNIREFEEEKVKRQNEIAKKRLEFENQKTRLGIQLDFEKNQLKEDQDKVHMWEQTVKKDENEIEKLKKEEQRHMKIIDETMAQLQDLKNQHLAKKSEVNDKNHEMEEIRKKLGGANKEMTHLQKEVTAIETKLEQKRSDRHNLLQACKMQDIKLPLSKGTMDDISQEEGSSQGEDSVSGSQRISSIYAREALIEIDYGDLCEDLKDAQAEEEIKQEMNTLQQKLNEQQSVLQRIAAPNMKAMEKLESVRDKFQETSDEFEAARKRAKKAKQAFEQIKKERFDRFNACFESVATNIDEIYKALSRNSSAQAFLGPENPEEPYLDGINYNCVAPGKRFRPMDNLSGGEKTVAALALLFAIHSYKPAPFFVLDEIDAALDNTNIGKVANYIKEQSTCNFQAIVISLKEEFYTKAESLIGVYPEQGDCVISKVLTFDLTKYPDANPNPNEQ
Sequence of cohesin-NIPBL^c subcomplex containing SMC1, SMC3, RAD21 and NIPBL^c (no SA1) (Q9UQE7 whole entry, chain 2 of 4): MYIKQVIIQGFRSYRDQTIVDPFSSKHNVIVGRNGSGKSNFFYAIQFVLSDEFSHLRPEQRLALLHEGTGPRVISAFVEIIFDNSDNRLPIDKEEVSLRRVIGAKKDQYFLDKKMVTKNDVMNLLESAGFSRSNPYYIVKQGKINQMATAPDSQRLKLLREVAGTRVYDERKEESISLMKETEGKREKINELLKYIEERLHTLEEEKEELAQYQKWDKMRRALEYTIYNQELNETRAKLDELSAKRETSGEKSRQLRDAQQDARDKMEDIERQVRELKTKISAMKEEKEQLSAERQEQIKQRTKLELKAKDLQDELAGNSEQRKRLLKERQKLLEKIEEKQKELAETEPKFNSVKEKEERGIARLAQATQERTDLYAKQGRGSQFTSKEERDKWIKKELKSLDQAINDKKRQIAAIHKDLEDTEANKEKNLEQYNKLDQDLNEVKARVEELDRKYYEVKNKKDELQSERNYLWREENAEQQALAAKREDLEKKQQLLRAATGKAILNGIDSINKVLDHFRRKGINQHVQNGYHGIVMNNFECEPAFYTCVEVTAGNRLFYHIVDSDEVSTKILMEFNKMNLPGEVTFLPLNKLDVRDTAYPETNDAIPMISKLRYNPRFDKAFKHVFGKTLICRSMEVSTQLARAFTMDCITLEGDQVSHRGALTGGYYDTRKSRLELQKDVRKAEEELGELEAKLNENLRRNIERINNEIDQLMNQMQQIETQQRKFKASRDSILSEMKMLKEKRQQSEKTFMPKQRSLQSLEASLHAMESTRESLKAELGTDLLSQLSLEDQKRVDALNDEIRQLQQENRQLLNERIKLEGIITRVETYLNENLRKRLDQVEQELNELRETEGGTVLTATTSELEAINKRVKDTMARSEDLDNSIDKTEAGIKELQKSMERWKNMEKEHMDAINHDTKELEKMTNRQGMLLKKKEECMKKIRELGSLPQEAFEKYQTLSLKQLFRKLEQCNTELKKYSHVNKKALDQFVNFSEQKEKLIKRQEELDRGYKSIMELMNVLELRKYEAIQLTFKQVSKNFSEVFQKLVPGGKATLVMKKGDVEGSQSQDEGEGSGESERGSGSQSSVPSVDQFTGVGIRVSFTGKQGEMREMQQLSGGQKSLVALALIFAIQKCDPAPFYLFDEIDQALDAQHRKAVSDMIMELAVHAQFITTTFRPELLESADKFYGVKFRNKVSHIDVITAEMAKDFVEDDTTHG
Sequence of cohesin-NIPBL^c subcomplex containing SMC1, SMC3, RAD21 and NIPBL^c (no SA1) (O60216 whole entry, chain 3 of 4): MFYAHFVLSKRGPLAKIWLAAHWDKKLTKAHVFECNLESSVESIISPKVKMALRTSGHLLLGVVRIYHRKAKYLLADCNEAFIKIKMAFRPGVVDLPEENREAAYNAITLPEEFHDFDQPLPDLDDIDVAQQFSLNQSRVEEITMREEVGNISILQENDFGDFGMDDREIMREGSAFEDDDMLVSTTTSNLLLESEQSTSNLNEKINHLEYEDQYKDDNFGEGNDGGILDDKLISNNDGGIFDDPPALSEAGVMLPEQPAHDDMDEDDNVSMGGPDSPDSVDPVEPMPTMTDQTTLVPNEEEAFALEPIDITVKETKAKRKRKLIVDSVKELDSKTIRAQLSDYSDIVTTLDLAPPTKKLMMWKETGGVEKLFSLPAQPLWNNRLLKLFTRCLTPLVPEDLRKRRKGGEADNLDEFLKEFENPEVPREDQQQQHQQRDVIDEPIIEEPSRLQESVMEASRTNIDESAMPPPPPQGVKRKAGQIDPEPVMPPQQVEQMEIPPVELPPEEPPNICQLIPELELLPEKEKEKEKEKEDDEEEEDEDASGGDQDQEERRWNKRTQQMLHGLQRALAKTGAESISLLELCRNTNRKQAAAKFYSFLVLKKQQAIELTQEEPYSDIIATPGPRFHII
Sequence of cohesin-NIPBL^c subcomplex containing SMC1, SMC3, RAD21 and NIPBL^c (no SA1) (Q6KC79 1163-2804, chain 4 of 4): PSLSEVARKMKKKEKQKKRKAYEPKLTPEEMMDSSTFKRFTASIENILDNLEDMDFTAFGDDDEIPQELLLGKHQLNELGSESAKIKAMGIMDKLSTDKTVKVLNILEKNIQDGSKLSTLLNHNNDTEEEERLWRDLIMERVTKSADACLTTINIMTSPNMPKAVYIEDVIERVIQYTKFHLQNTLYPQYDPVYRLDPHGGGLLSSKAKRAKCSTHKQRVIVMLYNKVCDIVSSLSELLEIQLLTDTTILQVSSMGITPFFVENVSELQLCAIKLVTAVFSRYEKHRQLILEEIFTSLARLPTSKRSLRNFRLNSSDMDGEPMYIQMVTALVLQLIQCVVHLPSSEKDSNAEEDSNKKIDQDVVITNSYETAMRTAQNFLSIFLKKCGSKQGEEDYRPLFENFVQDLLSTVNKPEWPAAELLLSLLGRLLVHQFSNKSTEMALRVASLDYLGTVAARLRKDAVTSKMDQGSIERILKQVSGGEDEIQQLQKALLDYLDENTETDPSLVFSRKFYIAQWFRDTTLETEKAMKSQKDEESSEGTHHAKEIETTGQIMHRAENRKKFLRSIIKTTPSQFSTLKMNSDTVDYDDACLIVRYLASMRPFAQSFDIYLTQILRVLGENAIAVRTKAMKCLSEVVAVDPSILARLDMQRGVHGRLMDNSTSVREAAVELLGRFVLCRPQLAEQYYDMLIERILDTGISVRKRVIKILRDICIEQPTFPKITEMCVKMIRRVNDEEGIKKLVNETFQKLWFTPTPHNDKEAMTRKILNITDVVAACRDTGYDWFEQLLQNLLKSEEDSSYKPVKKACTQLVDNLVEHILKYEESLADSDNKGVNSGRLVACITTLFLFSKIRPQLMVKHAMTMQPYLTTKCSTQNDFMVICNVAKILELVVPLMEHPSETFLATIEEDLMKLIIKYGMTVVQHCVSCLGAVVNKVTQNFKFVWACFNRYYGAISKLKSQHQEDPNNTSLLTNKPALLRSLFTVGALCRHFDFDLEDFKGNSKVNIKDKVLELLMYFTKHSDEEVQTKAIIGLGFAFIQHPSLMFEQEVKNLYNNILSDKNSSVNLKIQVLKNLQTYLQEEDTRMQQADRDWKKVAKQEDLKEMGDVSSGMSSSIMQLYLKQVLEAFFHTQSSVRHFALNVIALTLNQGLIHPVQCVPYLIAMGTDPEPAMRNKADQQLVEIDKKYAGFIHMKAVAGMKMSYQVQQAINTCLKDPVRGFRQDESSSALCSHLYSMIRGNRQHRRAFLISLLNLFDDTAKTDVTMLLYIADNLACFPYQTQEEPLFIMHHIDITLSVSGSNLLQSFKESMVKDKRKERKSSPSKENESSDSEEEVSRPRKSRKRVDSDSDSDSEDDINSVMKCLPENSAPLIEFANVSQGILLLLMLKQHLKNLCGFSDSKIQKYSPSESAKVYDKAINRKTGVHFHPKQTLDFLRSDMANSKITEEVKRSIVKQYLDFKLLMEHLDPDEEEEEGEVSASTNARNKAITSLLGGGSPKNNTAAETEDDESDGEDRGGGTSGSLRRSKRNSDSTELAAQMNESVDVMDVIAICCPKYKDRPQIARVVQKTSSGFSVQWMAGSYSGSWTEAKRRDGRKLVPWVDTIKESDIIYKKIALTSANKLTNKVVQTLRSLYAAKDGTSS

B1: SA1dc (SA1 1-1054 AAs, without its C terminus) (domain or fragment)
chain: MITSELPVLQDSTNETTAHSDAGSELEETEVKGKRKRGRPGRPPSTNKKPRKSPGEKSRIEAGIRGAGRGRANGHPQQNGEGEPVTLFEVVKLGKSAMQSVVDDWIESYKQDRDIALLDLINFFIQCSGCRGTVRIEMFRNMQNAEIIRKMTEEFDEDSGDYPLTMPGPQWKKFRSNFCEFIGVLIRQCQYSIIYDEYMMDTVISLLTGLSDSQVRAFRHTSTLAAMKLMTALVNVALNLSIHQDNTQRQYEAERNKMIGKRANERLELLLQKRKELQENQDEIENMMNSIFKGIFVHRYRDAIAEIRAICIEEIGVWMKMYSDAFLNDSYLKYVGWTLHDRQGEVRLKCLKALQSLYTNRELFPKLELFTNRFKDRIVSMTLDKEYDVAVEAIRLVTLILHGSEEALSNEDCENVYHLVYSAHRPVAVAAGEFLHKKLFSRHDPQAEEALAKRRGRNSPNGNLIRMLVLFFLESELHEHAAYLVDSLWESSQELLKDWECMTELLLEEPVQGEEAMSDRQESALIELMVCTIRQAAEAHPPVGRGTGKRVLTAKERKTQIDDRNKLTEHFIITLPMLLSKYSADAEKVANLLQIPQYFDLEIYSTGRMEKHLDALLKQIKFVVEKHVESDVLEACSKTYSILCSEEYTIQNRVDIARSQLIDEFVDRFNHSVEDLLQEGEEADDDDIYNVLSTLKRLTSFHNAHDLTKWDLFGNCYRLLKTGIEHGAMPEQIVVQALQCSHYSILWQLVKITDGSPSKEDLLVLRKTVKSFLAVCQQCLSNVNTPVKEQAFMLLCDLLMIFSHQLMTGGREGLQPLVFNPDTGLQSELLSFVMDHVFIDQDEENQSMEGDEEDEANKIEALHKRRNLLAAFSKLIIYDIVDMHAAADIFKHYMKYYNDYGDIIKETLSKTRQIDKIQCAKTLILSLQQLFNELVQEQGPNLDRTSAHVSGIKELARRFALTFGLDQIKTREAVATLHKDGIEFAFKYQNQKGQEYPPPNLAFLEVLSEFSSKLLRQDKKTVHSYLEKFLTEQMMERREDVWLPLISYRNSLVT
B1: binds.
